Data reported in the nanobody polyreactivity screen of Harvey et al. (2022).

Assay: yeast display, Sf9 membrane polyspecificity reagent, FACS + sequencing; frameworks hold sequencing errors
Procedure, shortened: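 Polyreactivity labels are assigned by the sorting gate from which each nanobody was recovered. The gates were low and high (top ~1%), set on anti-HA fluorescence for expression and streptavidin fluorescence for reagent binding. Before sorting, galactose-induced (36–48 hours) yeast display cells were stained for 1 hour at 4 °C with 10% biotinylated, detergent-solubilized Sf9 membrane reagent.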

| Sequence | polyreactivity (PSR sort gate) |
| --- | --- |
| QVQLVESGGCLVQAGGSLRLICAASGSIFDINAMGWYSQAPGKERELVADIRRGDSTNYADSVKGRFTISRDNAKNTVYLQMNSLKPEDTAVYYCAARWRRSIYGFYPQRPYDYWGQGTQVTVSS | high polyreactivity |
| QVQLVESGGCLVQAGGSLRLRCAASGSSFAYNDMGWDRQAPGKDRELVATIRNGGSTYYADSVKGRFTISRDNAKNTVYLQRNSLKPEDTAVYYCAAVPLWDYKFCYYLLYDYWGQGTQVNVSS | low polyreactivity |
| QVQLVESGGCLVQAGGSLRLSCAASGCTFVSNAMGWSRQAPGKERELVAAINGSGGITYYADSVKGRFTISRDNAKNTVYFQMNSLKPEDTAVYYCAAEVLYWRGYYNYWGQGTQVTVSS | low polyreactivity |
| QVQLVESGGCLVQAGGSLRLSCAASGFIFAKYAMGWYRQAPGKEREFVAAISFSGASTYYADSVKGRFTISRDNAKNTVYLQMNSLKPEDTAVYYCAAYWDAEGRRYTRLEYWGQGTQVTVSS | low polyreactivity |
| QVQLVESGGCLVQAGGSLRLSCAASGFIFGYYAMGWYRPPPGKESELVAAISWSGVSTYYADSVKGRFTISRDNAKNTVYLQMNSLKPEDTAVYYCAVGYVLTGVFQARFDYWGQGTQATVSS | high polyreactivity |
| QVQLVESGGCLVQAGGSLRLSCAASGFTFPNAMGWYIQAPGKERELDATISSSGGSTYYADSVKGRFTISRDNAKNTVYLQMNSLKPEDTAVFYCAARTRQYLIYRAYRYDYWGQGTQVTVSS | low polyreactivity |
| QVQLVESGGCLVQAGGSLRLSCAASGFTFQKYAMGWYRQAPGKERELVAAISWSGSSTYYADSVKGRFTISRDNAKNTVYLQMNSLKPEDTAFYYCAADSYYIQERDYWGQGTQVTVSS | high polyreactivity |
| QVQLVESGGCLVQAGGSLRLSCAASGFTFRYYAMGWYRQAPGKERELVAGITSGSRTNYADSVKGRFTISRDNAKNTVYLQMNSLKPEDSAVYYCAARIYNYQSWYDYWGQGTQVTVSS | high polyreactivity |
| QVQLVESGGCLVQAGGSLRLSCAASGFTFRYYAMGWYRQAPGKERELVASITGHGGSTYYADSVKGRFTISRDNAKNTVYLQMKSLKPEDTAVYYCNARVRGYYEYNYWGQGTQVTVST | high polyreactivity |
| QVQLVESGGCLVQAGGSLRLSCAASGFTFYRSVMGWYRQAPGKERELVAAITSDGGSTYYAVSVKGRFTISRDNGKNTVYLQMNSLKPEDTAVYYCSADASTWYTEEYWGQGNQVTVSS | low polyreactivity |
| QVQLVESGGCLVQAGGSLRLSCAASGIIFYTYAMGWYRQAPGKEREFVAGIRWSGSSTYYADSVKGRFTISRDNAKNTVYLQMNSLKPEDTAVYYCATGQPYGPLYSLGYGYWGQGTQVTVSS | high polyreactivity |
| QVQLVESGGCLVQAGGSLRLSCAASGITFRSYTMGWYRQAPGQESELVAAISYSAGSTYYADSVKGRFTISRDNAKNTVYLQMNSLKPEDTAVYYCAARPRLVVLVIRFYYWGQGTQVTVSS | high polyreactivity |
| QVQLVESGGCLVQAGGSLRLSCAASGITFVGNAMGCYRQAPVKERELVAGIRGNGGSTYYADSVKGRFTISRDYAKNTVYLQMNSLKPEDTAVYYCAAAAYYADFDYWGQGTQVTVSS | low polyreactivity |
| QVQLVESGGCLVQAGGSLRLSCAASGLIFPSYAMGWYRQAPGKERELVAAITFSGSDTNYADSVKGRFTISRDNAKNTVYLQLYSLIPEDTAVYYCAAAYFDFWGWLHDYWGQGTQVTVSS | low polyreactivity |
| QVQLVESGGCLVQAGGSLRLSCAASGLIFRGYAMGWYRQAPGKERELVATITGGGRTNYADSVKGRFTLSRDNAKNTVYLQMNSLKPEDTAVYYCNTGYYGRLRDDYWGQGTQVTVSS | high polyreactivity |
| QVQLVESGGCLVQAGGSLRLSCAASGLIFYGYAMGWYRQAPGKERELVAAITSGGSTNYADSVKGRFTISRDNAKNTVYLQMNSLKPEDTSFYYCNADVIYYYRAYPVYEYDYWGQGTQVTVSS | low polyreactivity |
| QVQLVESGGCLVQAGGSLRLSCAASGRIFSGYVMGWYRQAPGKERELVAGITYRDGSTYYADSVKGRFTISRDKEKNTVYLQMNSLKPEDTAVYYCNADDYNDIPYDYWGQGTHVTVSS | low polyreactivity |
| QVQLVESGGCLVQAGGSLRLSCAASGRTFGRNAMGWYRKAPGKERDLVAAISRSGASTYYADSVKGRFTISRDNAKITVYLQMNSLKEEDTAVYYCAKDVWGSRYAYDYWGQGTQVTVSS | low polyreactivity |
| QVQLVESGGCLVQAGGSLRLSCAASGRTFSSNALGWYRHAPGKERELVAAITTTGGRTYYADSVKGRFTISRDNAKNTVYLQMNSLKPEDTAVYYCAARRRYGYDFWGHGTQVTVSS | high polyreactivity |
| QVQLVESGGCLVQAGGSLRLSCAASGRTFVNNAMGWYRQAPGKYRELVAAITRSGGLTYSADSVKGRFTISRDHAKNTVYLQMTMLKPEYTAVYDCATAIVRLRHDDDWGQGTQVTVSS | high polyreactivity |
| QVQLVESGGCLVQAGGSLRLSCAASGRTFYTYAMGWYRQAPGQERELVAAITYRGGNTYYADSVKGRFTISRDNAKNTVYLQMNSLKREDTAVYYCAATYKRRSGQSFDYWGQGTQVTVSS | high polyreactivity |
| QVQLVESGGCLVQAGGSLRLSCAASGSIFERNVMGWYRHAPGKERELVAAITSGGSTNYADSVKGRFTISRDNAKNTVYLQMNSLKPEETAVYYCAADVPYRSRFYRYRLSGGDYWGQGTQVTVSS | low polyreactivity |

| Sequence | polyreactivity (PSR sort gate) |
| --- | --- |
| QVQLVESGGCLVQAGGSLRLSCAASGSIFLYNAMGWYRQAPGKERELVAAIPYSGGRTYYADSVKGRFTISRDNAKNTVSFQMNSLKPEDTAFYYCAVKSFSGHGDYWGQGTQVTVSS | low polyreactivity |
| QVQLVESGGCLVQAGGSLRLSCAASGSIFPGYAMGWYRQATGKERELVAAISTSGGSTYADSVKGRFTISRDNAKNTVYLQMNSLKPEDTAVYYCAATYTYTSPVYYYLDGPWPYDYWGQGTQVTVSS | low polyreactivity |
| QVQLVESGGCLVQAGGSLRLSCAASGSIFRYYAMGWNRQAPGKERELVAAISSSGDNTYYADSVKGRFTISRDNAKNTVYLQMNSLKPEDTAVYYCAVRGERRYIYDYWGQGSQVTVSS | high polyreactivity |
| QVQLVESGGCLVQAGGSLRLSCAASGSIFSAYAMGWYRQAPGKERELVAGITSSGDSTYYADSVKGRFTISRDKAKNTVYLQMNSLKPEDTAVYYCNRVLGGVPFDHWGQGTQVTVSS | low polyreactivity |
| QVQLVESGGCLVQAGGSLRLSCAASGSIFYRNAMGWYRQAPGKERELVAAISSDGSTNYADSVKGRFTISRDNAKNTVYLQMNSLKPEDTAVYYCAAPWTQILDYWGQGTQVTVSS | low polyreactivity |
| QVQLVESGGCLVQAGGSLRLSCAASGSINRSYAMAWYRQAPGKDWELVASISRRGGSTYYADSVKGRFTISRDNAKNSVYLQMNRLKPEDSAVYYCAAVRYNSRVSTTPSEMYYWGQGTQVTVSS | low polyreactivity |
| QVQLVESGGCLVQAGGSLRLSCAASGSISYSYSMGWYRQAPGKERELVATISWGGGRTYYADSVKGRFTISRDNAKNTVYLQMNSLKPEDTAVYYFATAYRFRYGFAKRYDYWGQGTQVTVSS | low polyreactivity |
| QVQLVESGGCLVQAGGSLRLSCAASGSIYGYTMGWYRQAPGKERELVAAINRRADRTYYADSVKGRFTISRDNAKNTVYLQMNSLKPEDTAVYYCATLQGDSSSQYDYWGHGTQVTVSS | high polyreactivity |
| QVQLVESGGCLVQAGGSLRLSCAASGSTFRHYAMGWYRQQPGKERELVASISKSAGRTYYADSVKGRFTISRDIAKNTVNLQMNSLKPEDTAVYYCAAYRIHVYPAGLAWQYYYELDYWGQGTQLTVSS | high polyreactivity |
| QVQLVESGGCLVQAGGSLRLSCAASGSTFTSNAMGWYRQAAGKEWQFVAAISFGGGITYDADSVKGRFTISRDNAKNTVSLQMNSLKPEDTAVYYCAADGEYPHSEDFEYWGQGTQGTVSS | low polyreactivity |
| QVQLVESGGCLVQAGGSLRLSCAASRFTFTYYAMGWYRHAPGKESELVAAITRRGGRTYYAYSVKGRFTISRDNAKNTVYLQMNSLKPEDTAVYYCNADEYGGSTGRKGRYNYWGQGTQVTVSS | low polyreactivity |
| QVQLVESGGCLVQAGGSLRLSCAPSGSIFKVYAKGWYRQAPGKVRELVAAITNGGSTYADSVKGRFTMSRDNAKYTVYLQMNSLKPEDTAVYYCDSDYRGHSGSWYDYWGQGTQVTVSS | low polyreactivity |
| QVQLVESGGCLVQAGGSLRLSCPASGNNFTAYAMGWYRQAPAKERELVAAISSSGRTNYADSVKGRFTISRDNAKNTVYLQMNSLKPEDTAVYYCAAYRLSNPFYKYDYWGQGTQVTVSS | high polyreactivity |
| QVQLVESGGCLVQAGGSLRLSCSASGIIFFPYAMGWYRQAPGKERELVASINISDSSTYYADSVNGRFTISRDNAKNTVYLQMNTLKPEDSAVSYCAADNPGDSWYWHGNWGQGTQVTVSS | low polyreactivity |
| QVQLVESGGCLVQAGGSLRLSFAASGSTLPYYSMGWYRHAPGKERELVAAITSSGGDTYYADSVKGRFTISRDIAKNTVYLQMNSLKPEDTAVYYCAKSFSARSTVRKLFYFAYDYWGQGTQVTVSS | low polyreactivity |
| QVQLVESGGCLVQAGGSLRLSGAASGYTFFFNVMGWYRPAPGKERQMVAAISYSGGSTNYADSVKGRFTISRDNAKITVYLQINSLKPEDTAVYYCNARSVSRNGYQDDYWGQGTQVTVSS | low polyreactivity |
| QVQLVESGGCLVQAGGSLRLSSAASGFIIPGNPMCWYRQAPAKERDLVAAITSGGSTKYADSVKGRITISRDNAKNTDYLQMNSLKPEDTAVYYCAARGFPPGDEWHPYDYWGQGTQVTVSS | low polyreactivity |
| QVQLVESGGCLVQAGGSLRLTCAASGFIFYRYAMGWYRHAPGKESELVAAISKSGSSTYYADSVKGRFTISRDNAKNTVYLQMNSLKPEDTAVYYCARDRQSRSLLEDDYWGQGTQVTVSS | high polyreactivity |
| QVQLVESGGCLVQAGGSRRLSCAASGLTIYHYAMGWYRQATGKERELVAAITNGYSTYYADSVKGRFTISLDNAMNTVYLQMNSLKPEDTAVYSCNADQPGDQHSGYWGQGTQVTVSS | low polyreactivity |
| QVQLVESGGCLVQAGGSVRLSCDASGITFVGNDMGWYRQAPGKERELVAAISSGSTHYADSVKGRFTISRDNAKNTVYLLMNSLKPEDTAFYYCAADIRGGLSNYSPKDYDYWGLGTQVTVSS | low polyreactivity |
| QVQLVESGGCLVQAGGTLRLSCASSGNTFVDYGMGWYRQAPGKERELVAAITRGGTTKYADSVKGRFTISRVNAKNKVYLQMNSLKPEDTAVYYCAAEWPVNFDYWGKGTQVTVSS | low polyreactivity |
